Measurements: patent publication US20250129150A1 (APOGEE THERAPEUTICS, published 2025)
Like-named read-outs stand apart in the source and are kept apart here.

T1: Recombinant Cynomolgus IL-13 Protein, His Tag (SINO BIOLOGICAL, Cat. 11057-C07H) (cynomolgus monkey, UniProt Q5I6E4 19-132 (Macaca thibetana entry))
T1 construct: also called Cyno IL-13; cynomolgus monkey IL-13
T1 chain: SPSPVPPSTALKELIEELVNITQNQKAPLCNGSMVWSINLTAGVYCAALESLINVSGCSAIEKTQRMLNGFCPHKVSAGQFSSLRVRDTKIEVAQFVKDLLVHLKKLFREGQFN

T2: recombinant human CD32a (167R) (human, UniProt P12318 36-218)
T2 sequence (looked up): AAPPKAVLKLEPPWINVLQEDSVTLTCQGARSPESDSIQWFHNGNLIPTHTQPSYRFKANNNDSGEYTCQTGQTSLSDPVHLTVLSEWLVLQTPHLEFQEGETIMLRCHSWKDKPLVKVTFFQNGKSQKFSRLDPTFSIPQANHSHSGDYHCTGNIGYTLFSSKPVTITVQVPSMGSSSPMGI

T3: recombinant human CD32b (human, UniProt P31994 46-217)
T3 sequence (looked up): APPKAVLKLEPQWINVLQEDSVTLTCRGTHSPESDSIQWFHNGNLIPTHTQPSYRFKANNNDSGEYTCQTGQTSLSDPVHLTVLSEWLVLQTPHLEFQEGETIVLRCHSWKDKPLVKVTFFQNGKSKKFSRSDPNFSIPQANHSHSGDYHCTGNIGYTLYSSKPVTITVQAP

B1: Lebrikizumab (Construct 1) (antibody, human IgG4 S228P, kappa)
heavy: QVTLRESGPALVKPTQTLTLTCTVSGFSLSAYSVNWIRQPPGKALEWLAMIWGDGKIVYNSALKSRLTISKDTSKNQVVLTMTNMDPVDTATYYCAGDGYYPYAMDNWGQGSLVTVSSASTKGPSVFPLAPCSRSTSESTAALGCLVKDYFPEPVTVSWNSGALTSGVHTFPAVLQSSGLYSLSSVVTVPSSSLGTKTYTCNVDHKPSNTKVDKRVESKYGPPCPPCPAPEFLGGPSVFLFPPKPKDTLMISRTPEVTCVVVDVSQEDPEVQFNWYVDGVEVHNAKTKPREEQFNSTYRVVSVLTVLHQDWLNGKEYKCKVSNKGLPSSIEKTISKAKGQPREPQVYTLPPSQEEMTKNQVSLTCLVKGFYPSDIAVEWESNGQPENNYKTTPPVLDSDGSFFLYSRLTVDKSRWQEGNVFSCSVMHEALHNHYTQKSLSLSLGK
light: DIVMTQSPDSLSVSLGERATINCRASKSVDSYGNSFMHWYQQKPGQPPKLLIYLASNLESGVPDRFSGSGSGTDFTLTISSLQAEDVAVYYCQQNNEDPRTFGGGTKVEIKRTVAAPSVFIFPPSDEQLKSGTASVVCLLNNFYPREAKVQWKVDNALQSGNSQESVTEQDSKDSTYSLSSTLTLSKADYEKHKVYACEVTHQGLSSPVTKSFNRGEC
notes: also called Lebrikizumab-HC; Lebrikizumab-LC
B2: Construct 133 (antibody, human IgG1, kappa, L234A L235A)
heavy: EVQLQESGPGLVKPSETLSLTCTVSGFSLNAYSVNWIRQPPGKGLEWLGMIWGDGKIVYNSALKSRLTISKDSSKNQVSLKLSSVTAADTAVYYCAGDGYYPYAMDNWGQGTTVTVSSASTKGPSVFPLAPSSKSTSGGTAALGCLVKDYFPEPVTVSWNSGALTSGVHTFPAVLQSSGLYSLSSVVTVPSSSLGTQTYICNVNHKPSNTKVDKKVEPKSCDKTHTCPPCPAPEAAGGPSVFLFPPKPKDTLYITREPEVTCVVVDVSHEDPEVKFNWYVDGVEVHNAKTKPREEQYNSTYRVVSVLTVLHQDWLNGKEYKCKVSNKALPAPIEKTISKAKGQPREPQVYTLPPSRDELTKNQVSLTCLVKGFYPSDIAVEWESNGQPENNYKTTPPVLDSDGSFFLYSKLTVDKSRWQQGNVFSCSVMHEALHNHYTQKSLSLSPG
light: DIQLTQSPSSLSASVGDRVTITCRASKSVDSYGNSFMHWYQQKPGKAPKLLIYLASNLESGVPSRFSGSGSGTDFTLTISSLQPEDFATYYCQQNNEDPRTFGGGTKVEIKRTVAAPSVFIFPPSDEQLKSGTASVVCLLNNFYPREAKVQWKVDNALQSGNSQESVTEQDSKDSTYSLSSTLTLSKADYEKHKVYACEVTHQGLSSPVTKSFNRGEC
notes: also called HC1; LC6
B3: Construct 136 (antibody, human IgG1, kappa, L234A L235A)
heavy: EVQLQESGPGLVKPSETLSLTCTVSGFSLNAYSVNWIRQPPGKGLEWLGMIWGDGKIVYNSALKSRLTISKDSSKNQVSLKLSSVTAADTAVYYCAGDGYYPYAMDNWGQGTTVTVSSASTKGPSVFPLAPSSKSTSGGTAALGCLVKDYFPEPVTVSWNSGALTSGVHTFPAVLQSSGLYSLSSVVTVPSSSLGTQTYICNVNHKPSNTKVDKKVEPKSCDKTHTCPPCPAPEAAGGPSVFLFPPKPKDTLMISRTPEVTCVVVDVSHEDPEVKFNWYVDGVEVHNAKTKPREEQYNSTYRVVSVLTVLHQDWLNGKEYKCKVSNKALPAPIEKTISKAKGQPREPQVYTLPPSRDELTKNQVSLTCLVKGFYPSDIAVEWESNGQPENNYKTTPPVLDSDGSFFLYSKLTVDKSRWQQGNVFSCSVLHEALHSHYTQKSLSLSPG
light: B2 light
notes: also called HC1; LC6
B4: Construct 134 (antibody, human IgG4, kappa)
heavy: EVQLQESGPGLVKPSETLSLTCTVSGFSLNAYSVNWIRQPPGKGLEWLGMIWGDGKIVYNSALKSRLTISKDSSKNQVSLKLSSVTAADTAVYYCAGDGYYPYAMDNWGQGTTVTVSSASTKGPSVFPLAPCSRSTSESTAALGCLVKDYFPEPVTVSWNSGALTSGVHTFPAVLQSSGLYSLSSVVTVPSSSLGTKTYTCNVDHKPSNTKVDKRVESKYGPPCPSCPAPEFLGGPSVFLFPPKPKDTLYITREPEVTCVVVDVSQEDPEVQFNWYVDGVEVHNAKTKPREEQFNSTYRVVSVLTVLHQDWLNGKEYKCKVSNKGLPSSIEKTISKAKGQPREPQVYTLPPSQEEMTKNQVSLTCLVKGFYPSDIAVEWESNGQPENNYKTTPPVLDSDGSFFLYSRLTVDKSRWQEGNVFSCSVMHEALHNHYTQKSLSLSLGK
light: B2 light
notes: also called HC1; LC6

Experiments:
hIL-13 [1] = target: T4, hIL-13 (human, UniProt P35225 35-146, limits assumed); assay: cell-based or functional assay
T4 sequence (P35225 other isoform, or with tags, fused parts or gaps limits assumed): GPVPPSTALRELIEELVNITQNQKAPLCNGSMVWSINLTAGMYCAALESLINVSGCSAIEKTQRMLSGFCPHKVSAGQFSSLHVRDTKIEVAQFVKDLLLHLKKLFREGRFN

hIL-13 [2] = target: T4, hIL-13; assay: cell-based or functional assay; remark: listed apart in the source
hIL-13 [3] = target: T4, hIL-13; assay: cell-based or functional assay; remark: listed apart in the source
hIL-13 [4] = target: T4, hIL-13; assay: cell-based or functional assay; remark: listed apart in the source
hIL-13 [5] = target: T4, hIL-13; assay: cell-based or functional assay; remark: listed apart in the source
hIL-13 [6] = target: T4, hIL-13; assay: cell-based or functional assay; remark: listed apart in the source
[7] = target: T5, Recombinant Human IL-13 Protein, His Tag (Acro Cat. IL3-H52H4) (human, UniProt P35225 35-146); assay: SPR (Biacore 8K), mAb captured on Protein G chip, IL-13 as analyte
T5 construct: Bought protein; also called Hu IL-13; not shown: His Tag
T5 sequence (P35225 other isoform, or with tags, fused parts or gaps limits assumed): as above
Outline: (§1)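 Antigen injected multi-cycle over freshly captured mAb; surfaces regenerated with glycine pH 1.5 for 30 sec. Double-referenced sensorgrams fit to a 1:1 binding model for apparent ka and kd; KD = kd/ka.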

[8] = target: T1, Recombinant Cynomolgus IL-13 Protein, …; assay: as above
Outline: as §1

recombinant human FcRn = target: T6, recombinant human FcRn (human, UniProt P55899 24-297; P61769 21-119); assay: SPR, antibody captured on anti-kappa chip, FcRn as analyte, pH 5.8; pH 5.8
T6 construct: also called neonatal Fc receptor
T6 sequence (P55899 24-297 limits assumed, chain 1 of 2): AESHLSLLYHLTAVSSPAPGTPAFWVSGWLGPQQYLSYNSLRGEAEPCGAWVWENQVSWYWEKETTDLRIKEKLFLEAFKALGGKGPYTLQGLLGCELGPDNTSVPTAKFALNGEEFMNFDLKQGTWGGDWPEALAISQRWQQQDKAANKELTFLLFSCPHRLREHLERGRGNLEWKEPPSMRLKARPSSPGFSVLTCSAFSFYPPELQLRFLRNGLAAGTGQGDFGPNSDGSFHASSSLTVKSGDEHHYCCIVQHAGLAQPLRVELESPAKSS
T6 sequence (P61769 21-119 limits assumed, chain 2 of 2): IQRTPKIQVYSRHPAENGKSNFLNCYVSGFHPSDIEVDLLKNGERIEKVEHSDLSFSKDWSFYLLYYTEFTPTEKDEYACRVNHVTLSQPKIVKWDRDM
Experimental: (§2) Binding affinity (KD) of antibodies to Fc receptors and C1q were determined through surface plasmon resonance (SPR) using a Biacore 8K. Briefly, an SPR chip functionalized with an anti-kappa light-chain antibody was used to capture purified antibodies normalized to […], at a flow rate of 10 uL/min for 90 seconds or 120 seconds. A paired channel with only buffer was used as reference. Subsequently, varying concentrations of recombinant human CD32a (167H), CD32a (167R), CD32b, CD16a (176V), CD16a (176F), FcRn, CD64, and C1q were injected over the surface with captured purified antibody as well as the reference channel. Regeneration of the chip between different concentrations of different antigens were performed with 10 mM Glycine HCl, pH 1.5 and antibody was again captured. Association and dissociation rate constants were subsequently determined through fitting to a 1:1 Langmuir binding model or steady-state analysis model, whichever applicable, using the Biacore Insight Evaluation Software from which a KD value was derived.

[9] = target: T2, recombinant human CD32a (167R); assay: SPR, antibody captured on anti-kappa chip, recombinant human receptor as analyte
Experimental: as §2

recombinant human CD32b = target: T3, recombinant human CD32b; assay: as above
Experimental: as §2

recombinant human CD64 = recombinant human CD64 (human, UniProt P12314 16-288); assay: as above
Chain of recombinant human CD64 (P12314 16-288 limits assumed): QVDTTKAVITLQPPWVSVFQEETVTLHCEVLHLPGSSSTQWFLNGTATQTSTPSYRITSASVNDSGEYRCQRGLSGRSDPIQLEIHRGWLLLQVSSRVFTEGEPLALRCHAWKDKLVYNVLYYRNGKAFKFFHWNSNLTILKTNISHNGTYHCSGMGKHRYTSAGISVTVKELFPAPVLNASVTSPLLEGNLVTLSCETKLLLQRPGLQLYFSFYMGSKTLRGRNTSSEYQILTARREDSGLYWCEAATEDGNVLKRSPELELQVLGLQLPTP
Experimental: as §2

biotinylated hIL-13 = biotinylated hIL-13 (human, UniProt P35225 35-146, limits assumed, biotinylated (site not stated)); assay: FACS; blockade of biotinylated hIL-13 (0.05 ug/mL) binding to HEK293 cells expressing hIL-13Rα1/hIL-4Rα
Chain of biotinylated hIL-13 (P35225 other isoform, or with tags, fused parts or gaps limits assumed): as the sequence (P35225 other isoform, or with tags, fused parts or gaps limits assumed) above
Outline: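 HEK293 cells stably co-expressing hIL-13Rα and hIL-4Rα (200,000/well) stained at 4 °C for 1 h, then a further 1 h at 4 °C in the dark. Median fluorescence intensity read by flow cytometry.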

hIL-13 [10] = target: T4, hIL-13; assay: ELISA
hIL-13 [11] = target: T4, hIL-13; assay: cell-based or functional assay; remark: listed apart in the source
[12] = target: T5, Recombinant Human IL-13 Protein, His …; assay: SPR (Biacore 8K), mAb captured on Protein G chip, IL-13 as analyte; remark: listed apart in the source
Experimental: Samples were injected in a multi-cycle manner over freshly captured mAb, by regenerating the capture surfaces with injection of glycine pH 1.5 for 30 sec at a flow rate of 30 μL/min. The data was processed and analyzed with Biacore Insight Evaluation Software Version 2.0.15.12933 (GE Healthcare) as follows. […] The responses from the two buffer blank injections were then subtracted from the reference subtracted data (2-1) to yield double-referenced data, which were fit to an 1:1 binding model to determine the apparent association (ka) and dissociation rate constants (kd). Their ratio provided the apparent equilibrium dissociation constant or affinity constant (KD=kd/ka).

[13] = target: recombinant human CD16a (176V) (human, UniProt P08637 17-208); assay: SPR, antibody captured on anti-kappa chip, recombinant human receptor as analyte
Chain of recombinant human CD16a (176V) (P08637 17-208 F176V): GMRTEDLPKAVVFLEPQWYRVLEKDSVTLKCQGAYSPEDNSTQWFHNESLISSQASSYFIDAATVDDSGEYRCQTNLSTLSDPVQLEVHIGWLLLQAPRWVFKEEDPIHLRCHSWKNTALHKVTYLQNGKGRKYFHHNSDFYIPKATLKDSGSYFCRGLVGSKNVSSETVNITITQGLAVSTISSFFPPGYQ
Experimental: as §2

recombinant human C1q = target: T7, recombinant human C1q (human, UniProt P02745 23-245; P02746 28-253; P02747 29-245, limits assumed); assay: SPR, antibody captured on anti-kappa chip, C1q as analyte; signal relative to rituximab
T7 construct: subunit composition is from general knowledge
T7 sequence (P02745 23-245 limits assumed, chain 1 of 3): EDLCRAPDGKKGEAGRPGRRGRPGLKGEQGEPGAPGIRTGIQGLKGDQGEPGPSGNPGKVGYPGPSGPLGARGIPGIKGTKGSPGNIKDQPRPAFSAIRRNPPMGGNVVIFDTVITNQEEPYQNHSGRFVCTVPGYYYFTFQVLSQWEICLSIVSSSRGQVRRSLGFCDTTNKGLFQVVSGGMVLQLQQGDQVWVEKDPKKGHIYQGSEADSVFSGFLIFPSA
T7 sequence (P02746 28-253 limits assumed, chain 2 of 3): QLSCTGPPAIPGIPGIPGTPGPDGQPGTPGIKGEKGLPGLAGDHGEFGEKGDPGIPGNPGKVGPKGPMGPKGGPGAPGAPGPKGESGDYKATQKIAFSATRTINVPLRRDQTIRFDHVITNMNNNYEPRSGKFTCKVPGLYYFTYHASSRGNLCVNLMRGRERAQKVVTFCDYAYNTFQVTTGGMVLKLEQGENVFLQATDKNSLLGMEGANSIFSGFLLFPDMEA
T7 sequence (P02747 29-245 limits assumed, chain 3 of 3): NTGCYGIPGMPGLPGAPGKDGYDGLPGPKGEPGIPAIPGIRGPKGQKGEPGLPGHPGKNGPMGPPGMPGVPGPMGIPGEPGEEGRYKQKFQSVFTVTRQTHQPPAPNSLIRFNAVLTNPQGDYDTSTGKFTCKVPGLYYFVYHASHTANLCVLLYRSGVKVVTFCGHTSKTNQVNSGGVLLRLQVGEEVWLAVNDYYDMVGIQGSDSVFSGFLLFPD
Experimental: as §2

| Binder | pSTAT6 Inhibition IC50 (HT-29 cells) (hIL-13 [1]) [nM] | TARC Inhibition IC50 (A549 cells) (hIL-13 [3]) [nM] | TF-1 Proliferation Inhibition IC50 (hIL-13 [4]) [nM] | CD23 Expression Inhibition IC50 (human PBMCs) (hIL-13 [5]) [nM] | pSTAT6 Inhibition IC50 (human PBMCs) (hIL-13 [5]) [nM] | CCL2 Secretion IC50 (HaCaT cells) (hIL-13 [6]) [nM] | CCL26 Secretion IC50 (HaCaT cells) (hIL-13 [6]) [nM] | NTRK1 Expression IC50 (HaCaT cells) (hIL-13 [6]) [nM] | Kd [7] [nM] | Kd [8] [nM] | Kd (recombinant human FcRn) [nM] | Kd [9] [nM] | Kd (recombinant human CD32b) [nM] | Kd (recombinant human CD64) [nM] | IC50 (biotinylated hIL-13) [nM] | Kd (hIL-13 [10]) [nM] | binding result [9] | binding result (recombinant human CD32b) | binding result [13] | C1q (Signal Relative to Rituximab) (recombinant human C1q) [%] | further results |
| --- | --- | --- | --- | --- | --- | --- | --- | --- | --- | --- | --- | --- | --- | --- | --- | --- | --- | --- | --- | --- | --- |
| B1 | 0.23 | 0.74 | 0.2 | 0.81 | 0.38 | 0.076 | 0.055 | 0.056 | 0.131 | 0.309 | 1060 | 2380 | 2930 | 1.12 | 1.11 |  |  |  |  |  | TARC Release IC50 (A549 cells) (hIL-13 [2]): 0.9 nM |
| B2 | 0.28 | 0.86 | 0.15 | 0.85 | 0.44 | 0.077 | 0.06 | 0.062 | 0.0777 | 0.208 | 150 |  |  |  | 0.89 | 0.019 | no binding | no binding | no binding | 15.9 | TF-1 Proliferation Inhibition IC50 (hIL-13 [11]): 0.16 nM; Kd [12]: 0.077 nM; binding result (recombinant human CD64): no binding |
| B3 | 0.3 | 0.89 | 0.15 |  |  | 0.074 | 0.052 | 0.053 | 0.0698 | 0.161 | 90 |  |  |  | 1.02 | 0.018 | no binding | no binding |  | 25.4 | Kd [13]: 4670 nM; binding result (recombinant human CD64): no binding |
| B4 | 0.2 | 0.99 | 0.18 |  |  |  |  |  | 0.105 | 0.33 | 160 | 8140 | 8620 | 2.8 | 1.08 | 0.05 |  |  | no binding | 25.3 |  |
